Series [1] relates to HeLa Kyoto. The experiment in a line: melting temperature (median over replicates), in situ; higher = more thermally stable.
Series [2] concerns HeLa Kyoto. The experiment in a line: solubility change mitosis vs G1/S (difference of NP-40 vs SDS log2 ratios) (log2 ratio difference); higher = more soluble in mitosis.
Series [3] deals with HeLa Kyoto. Kind of series: solubility in G1/S (NP-40 vs SDS abundance) (log2 ratio); higher = more soluble. The following applies: cell cycle stage: G1/S.
Series [4] concerns HeLa Kyoto. Kind of series: thermal stability score vs G1/S (z-score of summed log2 fold changes over temperatures); higher = more thermally stable than in G1/S.
Setting [5] is: cell cycle stage: early G1 (4.5 h after nocodazole release).
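For melting temperature (median over replicates), in situ in this document: HeLa Kyoto cells synchronized by double thymidine or nocodazole block, proteins quantified by TMT10plex mass spectrometry, three independent biological replicates.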
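For solubility change mitosis vs G1/S (difference of NP-40 vs SDS log2 ratios) in this document: synchronized HeLa Kyoto cells (double thymidine block for G1/S, nocodazole release for mitosis), protein amounts in NP-40 versus SDS lysates quantified by mass spectrometry, three biological replicates.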
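For solubility in G1/S (NP-40 vs SDS abundance) in this document: HeLa Kyoto cells arrested at G1/S by double thymidine block, proteins quantified by TMT10plex mass spectrometry in mild NP-40 versus SDS extracts, three biological replicates.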
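For thermal stability score vs G1/S (z-score of summed log2 fold changes over temperatures) in this document: synchronized HeLa Kyoto cells, proteins quantified by TMT10plex mass spectrometry, three biological replicates, mitosis taken 0.5 h after nocodazole release, G1/S directly after double thymidine block.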

Turning to “MPRPGSAQRWAAVAGRWGCRLLALLLLVPGPGGASEITFELPDNAKQCFYEDIAQGTKCTLEFQVITGGHYDVDCRLEDPDGKVLYKEMKKQYDSFTFTASKNGTYKFCFSNEFSTFTHKTVYFDFQVGEDPPLFPSENRVSALTQMESACVSIHEALKSVIDYQTHFRLREAQGRSRAEDLNTRVAYWSVGEALILLVVSIGQVFLLKSFFSDKRTTTTRVGS [TMED7]”, the melting temperature is 57.2 °C in the series with HeLa Kyoto [1] (cell cycle stage: G1/S) and 56.4 °C with HeLa Kyoto [1] (cell cycle stage: mitosis). For the same sequence, the “solubility change mitosis (log2)” value in the series on HeLa Kyoto [2] is -0.174. Moreover, the “solubility in G1/S (log2)” value in the series on HeLa Kyoto [3] is -0.0739. In addition, the thermal stability score with HeLa Kyoto [4] (setting [5]) came to 2.43; in the series on HeLa Kyoto [4] (cell cycle stage: mitosis), 0.528.

For the sequence “MPRRKKKVKEVSESRNLEKKDVETTSSVSVKRKRRLEDAFIVISDSDGEEPKEENGLQKTKTKQSNRAKCLAKRKIAQMTEEEQFALALKMSEQEAREVNSQEEEEEELLRKAIAESLNSCRPSDASATRSRPLATGPSSQSHQEKTTDSGLTEGIWQLVPPSLFKGSHISQGNEAEEREEPWDHTEKTEEEPVSGSSGSWDQSSQPVFENVNVKSFDRCTGHSAEHTQCGKPQESTGRGSAFLKAVQGSGDTSRHCLPTLADAKGLQDTGGTVNYFWGIPFCPDGVDPNQYTKVILCQLEVYQKSLKMAQRQLLNKKGFGEPVLPRPPSLIQNECGQGEQASEKNECISEDMGDEDKEERQESRASDWHSKTKDFQESSIKSLKEKLLLEEEPTTSHGQSSQGIVEETSEEGNSVPASQSVAALTSKRSLVLMPESSAEEITVCPETQLSSSETFDLEREVSPGSRDILDGVRIIMADKEVGNKEDAEKEVAISTFSSSNQVSCPLCDQCFPPTKIERHAMYCNGLMEEDTVLTRRQKEAKTKSDSGTAAQTSLDIDKNEKCYLCKSLVPFREYQCHVDSCLQLAKADQGDGPEGSGRACSTVEGKWQQRLKNPKEKGHSEGRLLSFLEQSEHKTSDADIKSSETGAFRVPSPGMEEAGCSREMQSSFTRRDLNESPVKSFVSISEATDCLVDFKKQVTVQPGSRTRTKAGRGRRRKF [UIMC1]”, the melting temperature with HeLa Kyoto [1] (cell cycle stage: G1/S) worked out at 51.5 °C; in the series on HeLa Kyoto [1] (cell cycle stage: mitosis), 52.5 °C. The “solubility change mitosis (log2)” value in the series with HeLa Kyoto [2] was 0.107. Further, the “solubility in G1/S (log2)” value in the series on HeLa Kyoto [3] is -0.219. In addition, the thermal stability score came to 1.12 in the series on HeLa Kyoto [4] (setting [5]) and 1.21 with HeLa Kyoto [4] (cell cycle stage: mitosis).

As to “MPSAKQRGSKGGHGAASPSEKGAHPSGGADDVAKKPPPAPQQPPPPPAPHPQQHPQQHPQNQAHGKGGHRGGGGGGGKSSSSSSASAAAAAAAASSSASCSRRLGRALNFLFYLALVAAAAFSGWCVHHVLEEVQQVRRSHQDFSRQREELGQGLQGVEQKVQSLQATFGTFESILRSSQHKQDLTEKAVKQGESEVSRISEVLQKLQNEILKDLSDGIHVVKDARERDFTSLENTVEERLTELTKSINDNIAIFTEVQKRSQKEINDMKAKVASLEESEGNKQDLKALKEAVKEIQTSAKSREWDMEALRSTLQTMESDIYTEVRELVSLKQEQQAFKEAADTERLALQALTEKLLRSEESVSRLPEEIRRLEEELRQLKSDSHGPKEDGGFRHSEAFEALQQKSQGLDSRLQHVEDGVLSMQVASARQTESLESLLSKSQEHEQRLAALQGRLEGLGSSEADQDGLASTVRSLGETQLVLYGDVEELKRSVGELPSTVESLQKVQEQVHTLLSQDQAQAARLPPQDFLDRLSSLDNLKASVSQVEADLKMLRTAVDSLVAYSVKIETNENNLESAKGLLDDLRNDLDRLFVKVEKIHEKV [CKAP4]”, the melting temperature came to 52 °C in the series with HeLa Kyoto [1] (cell cycle stage: G1/S) and 52.4 °C with HeLa Kyoto [1] (cell cycle stage: mitosis). In addition, the “solubility change mitosis (log2)” value in the series with HeLa Kyoto [2] worked out at 0.148. Also, the “solubility in G1/S (log2)” value in the series on HeLa Kyoto [3] came out at 0.635. In addition, the values for the thermal stability score in the series on HeLa Kyoto [4] (setting [5]) and in the series with HeLa Kyoto [4] (cell cycle stage: mitosis) were 5.49 and 6.55, respectively.

Turning to “MPSASASRKSQEKPREIMDAAEDYAKERYGISSMIQSQEKPDRVLVRVRDLTIQKADEVVWVRARVHTSRAKGKQCFLVLRQQQFNVQALVAVGDHASKQMVKFAANINKESIVDVEGVVRKVNQKIGSCTQQDVELHVQKIYVISLAEPRLPLQLDDAVRPEAEGEEEGRATVNQDTRLDNRVIDLRTSTSQAVFRLQSGICHLFRETLINKGFVEIQTPKIISAASEGGANVFTVSYFKNNAYLAQSPQLYKQMCICADFEKVFSIGPVFRAEDSNTHRHLTEFVGLDIEMAFNYHYHEVMEEIADTMVQIFKGLQERFQTEIQTVNKQFPCEPFKFLEPTLRLEYCEALAMLREAGVEMGDEDDLSTPNEKLLGHLVKEKYDTDFYILDKYPLAVRPFYTMPDPRNPKQSNSYDMFMRGEEILSGAQRIHDPQLLTERALHHGIDLEKIKAYIDSFRFGAPPHAGGGIGLERVTMLFLGLHNVRQTSMFPRDPKRLTP [DARS]”, the melting temperature with HeLa Kyoto [1] (cell cycle stage: G1/S) came to 49.4 °C; in the series with HeLa Kyoto [1] (cell cycle stage: mitosis) it was 49.2 °C. Besides, in the series on HeLa Kyoto [2], the “solubility change mitosis (log2)” value was -0.127. Besides, the “solubility in G1/S (log2)” value in the series on HeLa Kyoto [3] was -0.115. The figures for the thermal stability score with HeLa Kyoto [4] (setting [5]) and in the series on HeLa Kyoto [4] (cell cycle stage: mitosis) were 0.0385 and 4.02, respectively.

In the case of “MPSATSHSGSGSKSSGPPPPSGSSGSEAAAGAGAAAPASQHPATGTGAVQTEAMKQILGVIDKKLRNLEKKKGKLDDYQERMNKGERLNQDQLDAVSKYQEVTNNLEFAKELQRSFMALSQDIQKTIKKTARREQLMREEAEQKRLKTVLELQYVLDKLGDDEVRTDLKQGLNGVPILSEEELSLLDEFYKLVDPERDMSLRLNEQYEHASIHLWDLLEGKEKPVCGTTYKVLKEIVERVFQSNYFDSTHNHQNGLCEEEEAASAPAVEDQVPEAEPEPAEEYTEQSEVESTEYVNRQFMAETQFTSGEKEQVDEWTVETVEVVNSLQQQPQAASPSVPEPHSLTPVAQADPLVRRQRVQDLMAQMQGPYNFIQDSMLDFENQTLDPAIVSAQPMNPTQNMDMPQLVCPPVHSESRLAQPNQVPVQPEATQVPLVSSTSEGYTASQPLYQPSHATEQRPQKEPIDQIQATISLNTDQTTASSSLPAASQPQVFQAGTSKPLHSSGINVNAAPFQSMQTVFNMNAPVPPVNEPETLKQQNQYQASYNQSFSSQPHQVEQTELQQEQLQTVVGTYHGSPDQSHQVTGNHQQPPQQNTGFPRSNQPYYNSRGVSRGGSRGARGLMNGYRGPANGFRGGYDGYRPSFSNTPNSGYTQSQFSAPRDYSGYQRDGYQQNFKRGSGQSGPRGAPRGRGGPPRPNRGMPQMNTQQVN [CAPRIN1]”, the melting temperature in the series on HeLa Kyoto [1] (cell cycle stage: G1/S) was found to be 54.8 °C; with HeLa Kyoto [1] (cell cycle stage: mitosis), 54.9 °C. The “solubility change mitosis (log2)” value in the series with HeLa Kyoto [2] was 0.14. In the series with HeLa Kyoto [3], the “solubility in G1/S (log2)” value is -0.0442. Further, the results for the thermal stability score in the series on HeLa Kyoto [4] (setting [5]) and in the series on HeLa Kyoto [4] (cell cycle stage: mitosis) were -0.0976 and -1.01, respectively.

In the case of “MPSKSLVMEYLAHPSTLGLAVGVACGMCLGWSLRVCFGMLPKSKTSKTHTDTESEASILGDSGEYKMILVVRNDLKMGKGKVAAQCSHAAVSAYKQIQRRNPEMLKQWEYCGQPKVVVKAPDEETLIALLAHAKMLGLTVSLIQDAGRTQIAPGSQTVLGIGPGPADLIDKVTGHLKLY [PTRH2]”, the values for the melting temperature in the series with HeLa Kyoto [1] (cell cycle stage: G1/S) and in the series with HeLa Kyoto [1] (cell cycle stage: mitosis) were 52.3 °C and 52.6 °C, respectively. Moreover, in the series on HeLa Kyoto [2], the “solubility change mitosis (log2)” value turned out to be 0.0782. In the series with HeLa Kyoto [3], the “solubility in G1/S (log2)” value came out at 0.447. Besides, the thermal stability score in the series on HeLa Kyoto [4] (setting [5]) is -0.625; with HeLa Kyoto [4] (cell cycle stage: mitosis), -2.48.

Values taken from the supplement of paper PMC5998384.
